Patent US20160130329A1 (UNIVERSITY OF CHICAGO, published 2016)
Values belong to the binder of their own block, whether it stands above or below them. Where no end group is shown, it is not given here. [ ]: non-standard residue; d: D form. Lys(Me3) = C[N+](C)(C)CCCC[C@H](N)C(=O)O

Columns and labels:
H3K4me3 peptide [1] = biological target: T1, H3K4me3 peptide (also: biotinylated, site not given here); test: phage ELISA [A]
T1 peptide: ART[Lys(Me3)]QTARKSTGGYCD

H3K27me3 peptide [2] = biological target: T2, H3K27me3 peptide (trimethyl-lysine at K27 (histone H3 numbering); biotinylated through the GYCD tag); test: phage ELISA [A]
T2 peptide: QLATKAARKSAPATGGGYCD

H4K20me3 peptide [3] = biological target: T3, H4K20me3 peptide (trimethyl-lysine at K20 (histone H4 numbering); biotinylated through the GYCD tag); test: phage ELISA [A]
T3 peptide: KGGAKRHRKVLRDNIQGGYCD

H3K4me3 peptide [4] = biological target: T1, H3K4me3 peptide; test: yeast display, flow cytometry [A]
H3K27me3 peptide [5] = biological target: T2, H3K27me3 peptide; test: yeast display, flow cytometry [A]
H4K20me3 peptide [6] = biological target: T3, H4K20me3 peptide; test: yeast display, flow cytometry [A]
H3K36me3 peptide [7] = biological target: T4, H3K36me3 peptide (K(me3) at H3 K36; K(biotin) near the C-terminus, as printed: SAPATGGVK-K(me3)-PHRYRPGG-K(biotin)-D); test: yeast display, flow cytometry [B]
T4 peptide: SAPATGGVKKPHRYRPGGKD

H3K27me3 peptide [8] = biological target: T2, H3K27me3 peptide; test: yeast display, flow cytometry [B]
H3K4me3 peptide [9] = biological target: T1, H3K4me3 peptide; test: yeast display, flow cytometry [B]
H3K4me3 peptide [10] = biological target: T1, H3K4me3 peptide; test: yeast display of the scFv, peptide titration, flow cytometry
H3K4me3 peptide [11] = biological target: T1, H3K4me3 peptide; test: as above
H3K4me3 peptide [12] = biological target: T1, H3K4me3 peptide; test: quantitative peptide IP assay
H3K4me3 peptide [13] = biological target: T1, H3K4me3 peptide; test: peptide IP assay (antibody on beads, flow cytometry)
H3K4me3 peptide [14] = biological target: T1, H3K4me3 peptide; test: quantitative peptide IP assay, biotinylated Fab on streptavidin beads, flow cytometry
H3K36me3 peptide [15] = biological target: T4, H3K36me3 peptide; test: peptide IP assay (FIG. 8B)
H3K56me3 peptide [16] = biological target: T5, H3K56me3 peptide (K(me3) at H3 K56; K(biotin) near the C-terminus, as printed: LREIRRYQ-K(me3)-STELLIRGG-K(biotin)-D); test: peptide IP assay (FIG. 8B)
T5 peptide: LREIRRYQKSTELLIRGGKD

[17] = biological target: T6, cross-linked chromatin from HEK293T cells; test: cross-linked ChIP from HEK293T cells followed by qPCR
T6 construct: A protein-DNA complex

H3K4me3 peptide [18] = biological target: T1, H3K4me3 peptide; test: peptide IP assay (antibody on beads, flow cytometry)
H4K20me3 peptide [19] = biological target: T3, H4K20me3 peptide; test: as above
H3K36me3 peptide [20] = biological target: T4, H3K36me3 peptide; test: as above
H3K56me3 peptide [21] = biological target: T5, H3K56me3 peptide; test: as above

B1: 9H2 (scFv)
scFv: EVQLVETGGGVVQPGRSLRLSCTASGFTFRDHWMSWVRQAPGKGLEWVADIDQEGRWGYYLDAVKGRFTISRDNAKSSLYLQMNSLGAEDTAVYYCARDFLVGFGWHFDLWGRGTLVTVSSSYVLTQPPSVSVAPGQTARITCGGTNIGDISVHWYQQRPGQAPLVVVYDDSDRPSGIPERFSGSNSGNTATLTISRVEAGDEADYYCQVWDDSINAYVFGTGTKVTVL
binding result (H3K4me3 peptide [1]): no binding (tested: 100 nM peptide) | binding result (H3K27me3 peptide [2]): no binding (tested: 100 nM peptide) | binding result (H4K20me3 peptide [3]): no binding (tested: 100 nM peptide)

B2: 36H3 (scFv)
scFv: EVQLVETGGGVVQPGRSLRLSCTASGFTFRDYWMSWVRQAPGKGLEWVADLNKDGKYAYYLDAVKGRFTISRDNAKSSLYLQMNSLGAEDTAVYYCARDFVRGSGWHFDLWGRGTLVTVSSSYVLTQPPSVSVAPGQTARITCGGTNIGDISVHWYQQRPGQAPLVVVYDDSDRPSGIPERFSGSNSGNTATLTISRVEAGDEADYYCQVWDDSINAYVFGTGTKVTVL
binding result (H3K4me3 peptide [4]): no binding (tested: 500 nM) | binding result (H3K27me3 peptide [5]): no binding (tested: 500 nM) | binding result (H4K20me3 peptide [6]): no binding (tested: 500 nM)

B3: 9H3 (scFv)
scFv: EVQLVETGGGVVQPGRSLRLSCTASGFTFRDYWMSWVRQAPGKGLEWVADISQDGESRYYVDAVKGRFTISRDNAKSSLYLQMNSLGAEDTAVYYCARDLLSGYGWHFDLWGRGTLVTVSSSYVLTQPPSVSVAPGQTARITCGGTNIGDISVHWYQQRPGQAPLVVVYDDSDRPSGIPERFSGSNSGNTATLTISRVEAGDEADYYCQVWDDSINAYVFGTGTKVTVL
binding result (H4K20me3 peptide [3]): no binding (tested: 100 nM peptide)

B7: 304M3-A (Fab, V domains shown)
VH: EVQLVETGGGVVQPGRSLRLSCTASGFTFRDYWMSWVRQAPGKGLEWVADINQDGSALYYVDAVKGRFTISRDNAKSSLYLQMNSLGAEDTAVYYCARDLIYGFGWHFDLWGRGTLVTVSS
VL: not shown
notes: Produced and characterized in the same manner as 309M3-A: biotinylated Fab with a biotinylation acceptor peptide at the C-terminus of the heavy chain; also called recombinant anti-H3K4me3 antibody; 304M3-A antibody
fold increase in affinity compared with the lead antibody (scFv 4-5) (H3K4me3 peptide [12]): 360 fold | Kd (H3K4me3 peptide [13]): 20 nM | Kd (H3K4me3 peptide [14]): 16 nM | binding result (H3K36me3 peptide [15]): no binding | binding result (H3K56me3 peptide [16]): no binding

B8: 309M3-A (Fab, V domains shown)
VH: EVQLVETGGGVVQPGRSLRLSCTASGFTFRDHWMSWVRQAPGKGLEWVADINGDSILEYYVDAVKGRFTISRDNAKSSLYLQMNSLGAEDTAVYYCARDFHRGYGWHFDLWGRGTLVTVSS
VL: not shown
notes: also called recombinant anti-H3K9me3 antibody; 309M3-A antibody
ChIP enrichment relative to pAb-056-050 (lot A93-0042) [17]: ~3 fold | binding result (H3K4me3 peptide [18]): no binding (tested: 500 nM) | binding result (H4K20me3 peptide [19]): no binding (tested: 500 nM) | binding result (H3K36me3 peptide [20]): no binding (tested: 500 nM) | binding result (H3K56me3 peptide [21]): no binding (tested: 500 nM) | binding result (H3K27me3 peptide [2]): no binding (tested: 100 nM peptide)

Next, values leading:

binding result (H3K36me3 peptide [7]): no binding (tested: 500 nM) | binding result (H3K27me3 peptide [8]): no binding (tested: 500 nM)
B4: 20H3 (scFv)
scFv: EVQLVETGGGVVQPGRSLRLSCTASGFTFRDYWMSWVRQAPGKGLEWVADISQEGSWAYYLDAVKGRFTISRDNAKSSLYLQMNSLGAEDTAVYYCARDFPHGSGWHFDLWGRGTLVTVSSSYVLTQPPSVSVAPGQTARITCGGTNIGDISVHWYQQRPGQAPLVVVYDDSDRPSGIPERFSGSNSGNTATLTISRVEAGDEADYYCQVWDDSINAYVFGTGTKVTVL

binding result (H3K4me3 peptide [9]): no binding (tested: 500 nM) | binding result (H3K36me3 peptide [7]): no binding (tested: 500 nM) | binding result (H3K27me3 peptide [8]): no binding (tested: 500 nM)
B5: 20H1 (scFv)
scFv: EVQLVETGGGVVQPGRSLRLSCTASGFTFRDNWMSWVRQAPGKGLEWVADINQNGRYFYYIDAVKGRFTISRDNAKSSLYLQMNSLGAEDTAVYYCARAFQRGRGWHFDLWGRGTLVTVSSSYVLTQPPSVSVAPGQTARITCGGTNIGDISVHWYQQRPGQAPLVVVYDDSDRPSGIPERFSGSNSGNTATLTISRVEAGDEADYYCQVWDDSINAYVFGTGTKVTVL

Kd (H3K4me3 peptide [10]): 5100 nM | Kd (H3K4me3 peptide [11]): 5100 nM
B6: scFv 4-5 (scFv)
scFv: EVQLVETGGGVVQPGRSLRLSCTASGFTFRDYWMSWVRQAPGKGLEWVADIKQDGSDKYYVDAVKGRFTISRDNAKSSLYLQMNSLGAEDTAVYYCARDFSRGSGWHFDLWGRGTLVTVSSGILGSGGGGSGGGGSGGGGSSYVLTQPPSVSVAPGQTARITCGGTNIGDISVHWYQQRPGQAPLVVVYDDSDRPSGIPERFSGSNSGNTATLTISRVEAGDEADYYCQVWDDSINAYVFGTGTKVTVL
notes: also called lead antibody; scFv 4-5 polypeptide
